Measured values reported in patent WO2006089678A2 (dated 2006).

Assays:
[1] = target: T1, Tat, excreted regulatory protein encoded by HIV-1 (HIV-1 IIIB, in infected Jurkat cells) (HIV-1 IIIB, UniProt P04610 1-86); experiment: cell-based or functional assay
T1 sequence: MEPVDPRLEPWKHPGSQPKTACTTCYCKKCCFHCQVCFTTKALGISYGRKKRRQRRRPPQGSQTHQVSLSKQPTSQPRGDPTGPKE

[2] = target: T2, target epitope BSA conjugated peptide (HIV-1, conjugated to BSA); experiment: ELISA, BSA-conjugated peptide coated on plates, HRP rabbit anti-human IgG, luminescence
T2 construct: also called peptide conjugated to BSA

B1: n-CoDeR ® anti-Tat antibody (antibody, V domains shown)
VH: EVQLLESGGGLVQPGGSLRLSCAASGFTFDDYGMAWVRQAPGKGLEWVSGVSWNGSRTHYADSVKGRFTISRDNSKNTLYLQMNSLRAEDTAVYYCARGVAGHDYWGQGTLVTVSS
VL: QSVLTQPPSASGTPGQRVTISCSGSRSNIGSHYVFWYQQLPGTAPKLLIYDNNKRPSGVPDRFSGSKSGTSASLAISGLRSEDEADYYCAAWDGSLSGHVVFGGGTKLTVLG
notes: Human IgG1 lambda, expressed in CHO cells; also called fully human recombinant IgG1 antibody from the n-CoDeR phage display library
IC50 of inhibition of HIV-1 replication, 1 % initially HIV-1 IIIB infected Jurkat cells, p24 ELISA [1]: 0.05 µg/mL | IC50 of inhibition of HIV-1 replication, 3 % initially HIV-1 IIIB infected Jurkat cells, p24 ELISA [1]: 0.07 µg/mL | EC50 [2]: 0.7 nM
